Measured values taken from article PMC12719470 (Frontiers in Immunology, 2025).
Where a chain is given by its changes, count along the chain named.

B1: Nanobody-161 IgG1 (VHH)
VHH: EVQLVESGGGLVQPGGSLRLSCAASGSIRFINDMGWYRQAPGKGLELVAAIGRGGGSTNYADSVKGRFTISRDNAKNTLYLQMNSLRAEDTAVYYCHAEISQLGYAFRDYWGQGTLVTVSS
notes: also called WT; source: ExpiCHO, purified (MabSelect SuRe LX)
B2: Nanobody-161 IgG1 R53A (VHH)
VHH: B1 VHH with R53A
notes: as the VHH of Wm1, with the stated change
B3: Nanobody-161 IgG1 S101A (VHH)
VHH: B1 VHH with S101A
notes: as for B2
B4: Nanobody-161 IgG1 Q102A (VHH)
VHH: B1 VHH with Q102A
notes: as for B2
B5: Nanobody-161 IgG1 L103G (VHH)
VHH: B1 VHH with L103G
notes: as for B2
B6: Nanobody-161 IgG1 R108A (VHH)
VHH: B1 VHH with R108A
notes: as for B2
B7: Nanobody-161 IgG1 R29A (VHH)
VHH: B1 VHH with R29A
notes: as for B2
B8: Nanobody-161 IgG1 F30G (VHH)
VHH: B1 VHH with F30G
notes: as for B2
B9: TNFR2-His protein (receptor, UniProt P20333 23-461, looked up)
chain: APEPGSTCRLREYYDQTAQMCCSKCSPGQHAKVFCTKTSDTVCDSCEDSTYTQLWNWVPECLSCGSRCSSDQVETQACTREQNRICTCRPGWYCALSKQEGCRLCAPLRKCRPGFGVARPGTETSDVVCKPCAPGTFSNTTSSTDICRPHQICNVVAIPGNASMDAVCTSTSP
notes: TNFR2-His protein used as analyte in BLI; also called histidine-tagged TNFR2

Biological target: T1, TNFR2-His protein (Homo sapiens, UniProt P20333)
T1 construct: Tumor necrosis factor receptor 2 (TNFR2), human; The BLI methods say only 'TNFR2-His protein'; It may be the E. coli ectodomain (residues 33-205, purified on a nickel column) or a bought protein (Sino Biological 10417-H03H); neither the source nor the species is named for this experiment; also called histidine-tagged TNFR2
T1 sequence (P20333 23-461): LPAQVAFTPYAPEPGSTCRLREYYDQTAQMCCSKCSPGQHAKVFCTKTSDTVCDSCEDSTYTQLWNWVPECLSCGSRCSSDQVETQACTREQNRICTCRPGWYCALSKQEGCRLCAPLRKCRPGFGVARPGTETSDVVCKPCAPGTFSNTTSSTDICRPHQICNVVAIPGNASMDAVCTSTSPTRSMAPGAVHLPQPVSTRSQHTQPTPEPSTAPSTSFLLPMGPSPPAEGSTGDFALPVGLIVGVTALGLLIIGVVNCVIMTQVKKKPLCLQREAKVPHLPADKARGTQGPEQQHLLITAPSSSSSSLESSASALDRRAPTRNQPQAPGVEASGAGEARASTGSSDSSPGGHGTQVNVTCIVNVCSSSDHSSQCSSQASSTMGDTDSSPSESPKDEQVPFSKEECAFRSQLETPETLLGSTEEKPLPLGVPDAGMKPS
Assay: BLI; 30 nM Nanobody-161 IgG1 or mutant immobilised on Protein A biosensors (Gator); 4800 nM-300 nM TNFR2-His in Q Buffer (PBS, 0.02% Tween 20, 0.2% BSA); 25 °C; association 120 s, dissociation 180 s; global 1:1 Langmuir fit
Settings: both partners purified

**Q.** For B1, which Kd is on record?
**A.** Its Kd is 81.5 nM.

**Q.** And the koff?
**A.** Its koff is 0.000276 s⁻¹.

**Q.** And the kon?
**A.** The kon was 3390 M⁻¹ s⁻¹.

**Q.** B2 was tested. Which Kd did it give?
**A.** The Kd was 79.5 nM.

**Q.** What about the koff of the same binder?
**A.** The koff was 0.000321 s⁻¹.

**Q.** And the kon?
**A.** The kon was 4030 M⁻¹ s⁻¹.

**Q.** B3 was tested. Which Kd did it give?
**A.** The Kd was 1720 nM.

**Q.** What about the koff of the same binder?
**A.** Its koff is 0.00926 s⁻¹.

**Q.** And the kon?
**A.** Its kon is 5370 M⁻¹ s⁻¹.

**Q.** B4 was tested. Which Kd did it give?
**A.** Its Kd is 212 nM.

**Q.** What about the koff of the same binder?
**A.** The koff was 0.000699 s⁻¹.

**Q.** And the kon?
**A.** The kon was 3290 M⁻¹ s⁻¹.

**Q.** Which results are given for B5?
**A.** Kd: 976 nM; koff: 0.00382 s⁻¹; kon: 3920 M⁻¹ s⁻¹

**Q.** Which Kd does the source give for B6 here?
**A.** Its Kd is 186 nM.

**Q.** And the koff?
**A.** The koff was 0.000877 s⁻¹.

**Q.** What about the kon of the same binder?
**A.** The kon was 4730 M⁻¹ s⁻¹.

**Q.** Which Kd does the source give for B7 here?
**A.** Its Kd is 631 nM.

**Q.** And the koff?
**A.** Its koff is 0.002 s⁻¹.

**Q.** What about the kon of the same binder?
**A.** Its kon is 3170 M⁻¹ s⁻¹.

**Q.** For B8, which Kd is on record?
**A.** The Kd was 3780 nM.

**Q.** And the koff?
**A.** Its koff is 0.0126 s⁻¹.

**Q.** And the kon?
**A.** Its kon is 3340 M⁻¹ s⁻¹.

Biological target: T2, Nanobody-161 IgG1
T2 construct: CDR1 26-35, CDR2 50-59, CDR3 99-110); 78 kDa, called bivalent in the discussion; The methods nonetheless speak of heavy-chain and light-chain plasmids; source: ExpiCHO, transfected, purified from conditioned medium (MabSelect SuRe LX)
Assay: BLI; Gator system, 25 °C; 30 nM Nanobody-161 IgG1 or mutant immobilised on Protein A biosensors for 120 s; 4800 nM-300 nM TNFR2-His in Q Buffer (PBS, 0.02% Tween 20, 0.2% BSA); association 120 s, dissociation 180 s; global 1:1 Langmuir fit
Settings: both partners purified

**Q.** Does B9 bind?
**A.** Result: binds

Biological target: T3, Nanobody-161 IgG1 R29A
T3 construct: as the chain of m1 with the stated change
Assay: as above
Settings: both partners purified

**Q.** Does B9 bind?
**A.** Result: binds

Biological target: T4, Nanobody-161 IgG1 R53A
T4 construct: as the chain of m1 with the stated change
Assay: as above
Settings: both partners purified

**Q.** Does B9 bind?
**A.** Result: binds

Biological target: T5, Nanobody-161 IgG1 Q102A
T5 construct: as the chain of m1 with the stated change
Assay: as above
Settings: both partners purified

**Q.** Does B9 bind?
**A.** Result: binds

Biological target: T6, Nanobody-161 IgG1 F107G
T6 construct: as the chain of m1 with the stated change
Assay: as above
Settings: both partners purified

**Q.** Does B9 bind?
**A.** Result: binds

Biological target: T7, Nanobody-161 IgG1 R108A
T7 construct: as the chain of m1 with the stated change
Assay: as above
Settings: both partners purified

**Q.** Does B9 bind?
**A.** Result: binds
